# Measurements: the Immune Epitope Database (IEDB)
# Experiments:
# Assay in all cases: IEDB peptide-MHC binding, purified MHC/competitive/radioactivity; ≥ and ≤ were set here for values at or beyond the usual limits of such assays
# Conditions in all cases: source organism: Bordetella pertussis
# HLA-B*44:03 = target: HLA-B*44:03
# HLA-A*02:01 = target: HLA-A*02:01
# HLA-B*07:02 = target: HLA-B*07:02
# HLA-B*53:01 = target: HLA-B*53:01
# HLA-B*35:01 = target: HLA-B*35:01
# HLA-B*57:01 = target: HLA-B*57:01
sequence,measurement,setting,value
DGPPSRPTT,IC50,HLA-B*44:03,≥ 70.1 µM
FQTYALTGI,IC50,HLA-A*02:01,1.32 µM
LPSIPGTSI,IC50,HLA-B*07:02,0.116 µM
NPGSLIAEV,IC50,HLA-B*53:01,58.7 µM
PAVALPRPL,IC50,HLA-B*07:02,≥ 77.5 µM
QAAPLSITL,IC50,HLA-B*35:01,4.46 µM
same,IC50,HLA-B*53:01,4.49 µM
RSRVRALAW,IC50,HLA-B*57:01,0.0121 µM
TAFMSGRSL,IC50,HLA-B*07:02,56.1 µM
TSKQDERNY,IC50,HLA-B*57:01,≥ 70.4 µM
VGGGEHGRW,IC50,HLA-B*57:01,57.9 µM
YEAGFSLGS,IC50,HLA-B*44:03,35.4 µM
